One molecule from patent US12134664B2, “Muramyl peptide derivatives” (Bharat Biotech International Limited, priority 2015, dated 2024) can be followed below.

The subject of test [1] is OVA-specific IgG antibodies. Put plainly: OVA-specific IgG in sera of immunized mice (indirect ELISA). Particulars: OVA 100 μg alone, s.c. Days 1 and 15, sera 2 weeks after last immunization. The format is in vivo, BALB/c mice. Here is the method:
Male BALB/c mice were immunized subcutaneously with OVA 100 μg alone or with OVA 100 μg dissolved in saline containing analogues (7.5, 15 or 30 μg) on Days 1 and 15. Sera were collected 2 weeks after the last immunization. OVA-specific IgG antibodies in the sera were measured by an Indirect ELISA.

Test [2] deals with Total IgG1 and IgG2a antibodies. Description: Total IgG1 and IgG2a in sera of OVA-immunized mice (sandwich ELISA). Type of test: in vivo, BALB/c mice. Particulars: OVA 100 μg alone. Here is the method: Male BALB/c mice were immunized subcutaneously with OVA 100 μg alone or with OVA 100 μg dissolved in saline containing the MDP or MDP-ET analogues (7.5, 15 or 30 μg) on Days 1 and 15. Sera were collected 2 weeks after the last immunization. Total IgG1 and IgG2a antibodies in the sera were measured by Sandwich ELISA.
Measurement of total IgG subtypes such as IgG1 and IgG2a are useful to assess type immunity produced. In mice, IgG1 is integrated with Th2-type response, while Th1-type response is integrated with the production of IgG2a, IgG2b, and IgG3 antibodies. Antibody subclass is indispensable for complement fixation and provides protection. IgG2a and IgG2b can fix the complement stronger than IgG1. Vaccine adjuvants showing broad subclass distribution is beneficial against pathogens. […] But, it didn't induce much significant IgG1 response i.e., Th2 type, than MDP+OVA group.

B1: OVA: Ovalbumin (OVA) antigen, given alone (protein, UniProt P01012 2-386, looked up)
Ovalbumin: GSIGAASMEFCFDVFKELKVHHANENIFYCPIAIMSALAMVYLGAKDSTRTQINKVVRFDKLPGFGDSIEAQCGTSVNVHSSLRDILNQITKPNDVYSFSLASRLYAEERYPILPEYLQCVKELYRGGLEPINFQTAADQARELINSWVESQTNGIIRNVLQPSSVDSQTAMVLVNAIVFKGLWEKAFKDEDTQAMPFRVTEQESKPVQMMYQIGLFRVASMASEKMKILELPFASGTMSMLVLLPDEVSGLEQLESIINFEKLTEWTSSNVMEERKIKVYLPRMKMEEKYNLTSVLMAMGITDVFSSSANLSGISSAESLKISQAVHAAHAEINEAGREVVGSAEAGVDAASVSEEFRADHPFLFCIKHIATNAVLFFGRCVSP
B1: the “Log(2) IgG Antibody Titre” value in test [1] came out at 12.64. Further, in test [2], the “Log(2) Total IgG1 Antibody Titre” value is recorded as 14.39 and the “Log(2) Total IgG2a Antibody Titre” value is given as 11.89.
